What all share (test): purified protein
What all share (assay type): biochemical, Geobacillus sp. 12AMOR1
Conditions in all cases: 20 mM Tris-HCl pH 8.0, 30 °C

Data set [1] deals with T1, CCCC(=O)Oc1ccc([N+](=O)[O-])cc1.
T1 construct: catalytic triad Ser97, Asp196, His226

For data set [2], the system named is T2, CCCCCC(=O)Oc1ccc([N+](=O)[O-])cc1.
T2 construct: catalytic triad Ser97, Asp196, His226

Data set [3] deals with T3, CCCCCCCC(=O)Oc1ccc([N+](=O)[O-])cc1.
T3 construct: catalytic triad Ser97, Asp196, His226

One may read the Km as the substrate concentration at which the rate is half of its maximum. The kcat is the number of substrate molecules converted per active site and unit of time at saturation. As a reminder, the kcat/Km is the second-order rate constant that governs catalysis at low substrate concentration.

With “GMGL (Geobacillus sp. monoacylglycerol lipase) (Geobacillus sp. 12AMOR1; L142A)”, in data set [1], the Michaelis-Menten constant (Km) amounted to 14.78 mM, the kcat was found to be 15.9 s⁻¹ and the catalytic efficiency (kcat/Km) worked out at 1080 M⁻¹ s⁻¹. Besides, in data set [2], the Michaelis constant (Km) is 1.66 mM, the turnover number (kcat) stood at 4.08 s⁻¹ and the kcat/Km turned out to be 2460 M⁻¹ s⁻¹. In data set [3], the Michaelis constant (Km) came to 4.65 mM, the catalytic constant (kcat) is 1.29 s⁻¹ and the kcat/Km is 280 M⁻¹ s⁻¹.
In the case of “GMGL (Geobacillus sp. monoacylglycerol lipase) (Geobacillus sp. 12AMOR1)”, the figures for the Km in data set [1], in data set [2] and in data set [3] were 6.80 mM, 4.06 mM and 2.83 mM, respectively. Besides, the kcat in data set [1] stood at 9.74 s⁻¹; in data set [2], 4.31 s⁻¹; in data set [3], 2.58 s⁻¹. Also, the specificity constant (kcat/Km) in data set [1] came out at 1430 M⁻¹ s⁻¹; in data set [2] it was 1060 M⁻¹ s⁻¹; in data set [3] it was 910 M⁻¹ s⁻¹.
With “GMGL (Geobacillus sp. monoacylglycerol lipase) (Geobacillus sp. 12AMOR1; I170F)”, the Michaelis-Menten constant (Km) is 2.37 mM in data set [1], 1.60 mM in data set [2] and 4.63 mM in data set [3]. The kcat in data set [1] stood at 3.31 s⁻¹; in data set [2], 3.67 s⁻¹; in data set [3], 2.08 s⁻¹. For the same substance, the kcat/Km stood at 1210 M⁻¹ s⁻¹ in data set [1], 2290 M⁻¹ s⁻¹ in data set [2] and 450 M⁻¹ s⁻¹ in data set [3].
As to “GMGL (Geobacillus sp. monoacylglycerol lipase) (Geobacillus sp. 12AMOR1; I145A)”, in data set [1], the Michaelis constant (Km) turned out to be 9.56 mM, the catalytic constant (kcat) is 3.25 s⁻¹ and the catalytic efficiency (kcat/Km) turned out to be 340 M⁻¹ s⁻¹. Further, in data set [2], the Michaelis constant (Km) is 1.34 mM, the kcat turned out to be 2.02 s⁻¹ and the kcat/Km worked out at 1510 M⁻¹ s⁻¹. Also, in data set [3], the Km is listed as 8.32 mM, the catalytic constant (kcat) turned out to be 0.95 s⁻¹ and the kcat/Km was found to be 110 M⁻¹ s⁻¹.
